Results as given in the DeepSol protein solubility set.

Assay: soluble on expression in E. coli; label from the status in PepcDB or PDB records

| Sequence | soluble on expression in E. coli |
| --- | --- |
| MGSDKIHHHHHHMARLLSELQPSEFDITVVAIADTPPDVVSMLPDHVEVKHLKMTRRTALLQLGEISKIVKSTDILVCSLFHATAIGVPLGLLLQVPKLLVWQHSTSYSNQIRSAYYRLAYRAADRVLADSDAVMEMLVDSVGVPDQKISTLPIAGIDVKEYQPSKTHPSHENITVSTVGRLANVKGYDDLIRCARDIGDDLQFQIAGEGEERERLESKTPDNVNFQGMVPNEQIPQFLNNSDIYFQPSKYEGLCMAVIEAMACGLPVVASDVGGITESVVPGETGFLCRPRDIDCFSERLQQLSENPALRKQMGTAGRKRVISEYSQKALARQFRKAIDQTETV | not soluble |
| MGSDKIHHHHHHMSQAPYFVPRAPYAEDPSKSKGRRFKEDESRTRTPFARDRDRIIHTSAFRRLKEKTQVFVAHEGDNFRTRLTHTLEVAQVARSLATALGLDADLAETIALAHDLGHPPFGHAGEDELEIQMREYGGFDHNVQTFRVVTELEHRYPDFIGLNLTWETLEGVIKHNGPVTNKLGKPSWKAISKYDNEYELGLGTWASAEAQVAALADDIAYNNHDVDDGVTAGLFTLDDLMDVPLIGPILAAVKSERPDLDARLTHLEAVRRMIGAMVDDVMGETLHRAAASGVQSADDVRALDHALVAFSSDMAEDLARLRGFLYERMYRHWRVNRTRSQARRILGEMFALFLREPEVLPTVWFAKSQNRDEAGRARVVCDYIAGMTDRFAIEEHRKLFHLDVWN | not soluble |
| MGSDKIHHHHHHFVSIELKDRSLVNNQYKGKIKSANLSVDYEINQVMKDIDKLGLNTVNVPIIINVESINSDIMSIDNNSKEKAIKLIKKLNKKGISTILEAYPWIENGKLYETDWNPINKKRFFYTWQNAILNELIIDVANPLDVNVLNIGSNFVHLEEYQQNWGEIIDFVQSKFDGLVTYRTNWWYTKKDDLSSKLFYEQKLNNNFFDKLDFISIAAYFELSNKPVNTVDELISALHSSTVNNRGQNIKQEIYNLYKAHRKPIFFGELGFSNRESASSQPWNHTPSKAVNGEEQARCFEAYKKVFENEDWINGFSVFCVGKIDDEKNFYPSKESIKVIKSWYE | not soluble |
| MEVLKLQLRQWQAEKLGEAINALKHGKTLLLNAKPGLGKTVFVEVLGMQLKKKVLIFTRTHSQLDSIYKNAKLLGLKTGFLIGKSASCIYAQGDEEPDEINCSKCRLKDKIKTIEDKEPSKLIEEFKDAVDYCPYYSLRANLKDKDVIAMTYPYLFQKPIRNSVFCNKDDCLKLEDYLIVIDEAHNLLEADKWFTRKISRKMLERALKEIEIVERLNRIDAKKVKDYINLLIDYMSKLIKDGRCHELSLMPLPDRETNGELIVVTRAYLNIDEGPVKKSSLKSLLKFVEMKGDLYNCNGSLVKVPSDVNQLIEDALNVKTFKVLMSGTLPESLTLTNSYKIVVNESYGRGEYYYCPNVTSELRKRNSNIPIYSILLKRIYENSSKSVLVFFPSYEMLESVRIHLSGIPVIEENKKTRHEEVLELMKTGKYLVMLVMRAKESEGVEFREKENLFESLVLAGLPYPNVSDDMVRKRIERLSKLTGKDEDSIIHDLTAIVIKQTIGRAFRDPNDYVKIYLCDSRYREYFADLGISEKEIKLFA | soluble |
| MNQDLSQTFLAITRNSTDLEWLQGALAPLGQVVGADGSLDELLALVDVTFANLVFVGLDREHVVAQAALIEGALEAKPMLAIVALGDGMDNQLVLNAMRAGARDFVAYGSRSSEVAGLVRRLSKRLPAVTPNTQLGGLTVLYGAQGDGDGALLASHLALVVQKSGQQTLLLDLGLPRGDSLALLGLESSFHFGDALRHLRRLDATLIDSAFTSAEAGLRILAYASHDAPLEHTSAAELYMLLSALRQHFQHIVVNLVGQPDSEALRTFVSHCDKLLWCTDQNVLDCRRNLAVLNHWREKGMKLEHARLLVDRYLRTVAPDSETLGKTFGLEVIAVLAYSPEVRLNAKNQGVTLFELAPREALTQSLRTLGERLAKRSQGLPKPKAGWLNRIMGGRLEHHHHHH | not soluble |
| SAPVGVEKKLLLGPNGPAVAAAGDLTSEEEEGQSLWSSILSEVSTRARSKLPSGKNILVFGEDGSGKTTLMTKLQGAEHGKKGRGLEYLYLSVHDEDRDDHTRCNVWILDGDLYHKGLLKFAVSAESLPETLVIFVADMSRPWTVMESLQKWASVLREHIDKMKIPPEKMRELERKFVKDFQDYMEPEEGCQGSPQRRGPLTSGSDEENVALPLGDNVLTHNLGIPVLVVCTKCDAVSVLEKEHDYRDEHLDFIQSHLRRFCLQYGAALIYTSVKEEKNLDLLYKYIVHKTYGFHFTTPALVVEKDAVFIPAGWDNEKKIAILHENFTTVKPEDAYEDFIVKPPVRKLVHDKELAAEDEQVFLMKQQSLLAKQPATPTRASESPARGPSGSPRTQGRGGPASVPSSSPGTSVKKPDPNIKNNAASEGVLASFFNSLLSKKTGSPGSPGAGGVQSTAKNSGQKTVLSNVQEELDRMTRKPDSMVTNSSTENEA | soluble |
| MAHHHHHHMLGKLGLRTEAYPFDFSRVTLDGLMHFIRNGFAEGFYPPGPLPYRPECVGPWVLFRGQHTAFAHFDLNDPHVQAHFQVKMRRFDAVLNSPERPVTFFRTVTARYPQQELALALDLEEAVARRNPSLDFRIVFMVHDQGLRANAVQLAPLSPRVTLWTLQYRGLPGDTLFDRTHTAYRTVMMHSVAESNWPAVNVGVATPPPATVAPAEARDFESGALRCDGAIRTDDVPLSDLTVDRFPWRSHDNLALIDGVASVGGTCAGIGSTKMLEDASAALQVEGRVRRKCRYCGDATYHAAGRPFRTERPFTDEEDQLVLIHLYQILTGGDKVAAVEKLAHEMRRGTYEVICRIQYLTNSSTKLMDSIDPASPSDS | not soluble |
| MAHHHHHHMYSFSPVTPGKTAASPANDLVSSSSNSNGELVDDIKESLDRIEKLLNRGQQLLYGDGAADGKKAYSEGAAVTPDGEPADADTVSIPTARHVDANCGSYQLPSDTHVGLPLRGTGTSAAANASLYPQSTSQHSASHFQRNSEKLYQRLSGESNHRYPSQNGSNRSSLHARPHANRASVGSNRLPPGFKDKVLVSVRGRRIVQIQKEGGIVPNFEEGLDAHDTPQNFTIEELKARIHRELEEYRRLGPLMNRYKSFRRRQCVTVAKRAPMMKIASRTFTAATTAALGSKLVKHIPAPASASTPQGAANRFGVHAAAATTKTGPHAAPASRQAAKSTNGTPARSTLRNSHERGRVETRRADRGSHPPMMAPPGNSTYSAYYNPLQMSGGSRNASCELSLKQTAGCSDVVPQHARNVSKSKPRTTEPQDDMEEASLPDSMEDCDASQPYVAPLDLSVIKK | not soluble |
| MGLQKKLNYKKTESERSFYRGSNLKQVMGEDIVSKFDYIGPIRWIFLNYCTGYFIFVEELTNNSEIRSDRLEFIDTMNKIFSEAEQYFNSAPKERPKNPKSLAEYKYLGYYRLSFSNTNPDNSAIIRLNDVEVEKSELPPLLNLDTDEILDYAV | not soluble |
| MKKYTCTVCGYIYNPEDGDPDNGVNPGTDFKDIPDDWVCPLCGGGKDQFEEVEE | soluble |
| MWDSENIEELSLVIGIGLDKPDDENLELTQQILVPKIISAKEGSSSDPTQLSITKGKTVHQMMRTSALKHKPTFSQHLRLILLSKSVIADQIGMDAIINQFVRDNGTRRSSYVFITNGRTKDIFNMNDEGEPASNVIYDLTENNKVTIRTMEPVTLGEISEHLTSDDSFLIPHVGKENGKLAINGASIIKNKLWHRDLTPIEVQNISLFSGTVEGGVIDLKRDGHLFSYEVYSSNRKIKTAYKDGKFKFTVTRNIEGRLSEDWNPNEDSFKDSYIKSIEKTVEKRVHETVTSFITEKLQKEIKADVTGLGNEVRIHYPQKWKKISRKWDDDYFSNAEIDYRVNVIVRDFGTKGANKLEHHHHHH | not soluble |
| SADCILVNSQFTAAVFKETFKSLSHIDPDVLYPSLNVTSFDSVVPEKLDDLVPKGKKFLLLSINRYERKKNLTLALEALVQLRGRLTSQDWERVHLIVAGGYDERVLENVEHYQELKKMVQQSDLGQYVTFLRSFSDKQKISLLHSCTCVLYTPSNEHFGIVPLEAMYMQCPVIAVNSGGPLESIDHSVTGFLCEPDPVHFSEAIEKFIREPSLKATMGLAGRARVKEKFSPEAFTEQLYRYVTKLLV | soluble |
| MRTVIFDLDGTLADTSGDLLAAANHCFRDMGLGDVLVPGQDAGIALRGGRMMLTRGLERVGAYDAATVERYYPVLLEAYRGAIDHHSFLYPGAMDAVEELRRAGYGVGICTNKPEALADLLLQRLGVRDAFAALIGADTLPVRKPDPEPLRAAARAAGGDPAACVLVGDSDTDRNTARAAGVPSILVTFGPSGDDMAALEPEALLERFEDLPHVVTRLIG | not soluble |
| MAYSEKVIDHYENPRNVGKLDAADPNVGTGMVGAPACGDVMRLQIKVNEQGVIEDAKFKTYGCGSAIASSSLATEWMKGKTLDEAETIKNTTIAEELALPPVKIHCSVLAEDAIKAAVRDYKQKKGLL | not soluble |
| QLEKELEESAARYNQLAAQSRTITWEIDVTGLFTYVSPVVESVFGYLPNELVGAMRFYEIHPTEGRERFKTSFLEMFASKTIVEEVVHPVVAVDGRTIWMSTNALPILDEHGTLVGYRGACTDIS | not soluble |
| MIIPMNNKHPLPTPLVSIIIPVYNVEKYLYRCVKSILSQDYYDYEIILVDDGSTDGSGMICDELTEQHGHISVIHKPNGGQGSARNAGLNHAKGKYIWFIDSDDYISPHSLSVIMSQITQGDFDALFFPYIKSNGNILIGEAVGKYHAGVYRGQQLLLEGLVNMSMCTIVSLRSRWIDNRIFFREDIHFEDFEINPRVLKFLERAIFLDSNIIPYIYYTRLGSTMNQLDPQKRMRQTEDFLRIEKSWKEWFNLDSPEPNSYDMLMLRTGTNMLHRNLLNFVRNSNFSISTKLKLYAQYRKKGVFSWFYNGYRRDPYVGCTSVRVFWNTIGRSYILFSLFSIVEEIWKKIRK | not soluble |
| MKALTYHGPHHVKVENVPDPGIEQPDDIILRVTATAICGSDLHLYRGKIPQVKHGDIFGHEFMGEVVETGHDVKNIRKGDRVVIPFVIACGDCFFCRLQQYSACENTNDGHGAAMNKKQIPPPAALFGYSHLYGGVPGGQAEYVRVPKGNVGPFKVPPLLSDDKALFLSDILPTAWQAAKNAQIQQGFSVAVFGAGPVGLLTIACARLLGAEQIFVVDHHAWRLRFAEERYGAIPINFDDENDPAEKIIEQTAGHRGVDAVIDAVGFEAKGSLTETVLTNLKLEGSSGKALRQCIAAVRRGGVVSVPGVYAGFIHGFLFGDAFDKGLTFKMGQTHVHAWLGELLPLIEKGLLKPEEIVTHYMPFEEAARGYEIFEKREEECRKVILVPGATSAQAAQKQATGVVNPMPGGVV | not soluble |
| MAGRKKTTACKLFVLDTNVLLHDPTCLYRFEEHDVFIPIITLEELDTHKKGMSEVARNARQASRFLDDIISGNELNISEGIPLKHASRDAASGKLILQTQAINGTLPSSLPMGKADNQILGIVMALKSHYQGRAVILVSKDINMRIKARALGLEAEDYFNDKVLEDTDVL | not soluble |
| LYPEEILDTHWELWKKTHRKQYNNKVDEISRRLIWEKNLKYISIHNLEASLGVHTYELAMNHLGDMTSEEVVQKMTGLKVPLSHSRSNDTLYIPEWEGRAPDSVDYRKKGYVTPVKNQGQCGSCWAFSSVGALEGQLKKKTGKLLNLSPQNLVDCVSENDGCGGGYMTNAFQYVQKNRGIDSEDAYPYVGQEESCMYNPTGKAAKCRGYREIPEGNEKALKRAVARVGPVSVAIDASLTSFQFYSKGVYYDESCNSDNLNHAVLAVGYGIQKGNKHWIIKNSWGENWGNKGYILMARNKNNACGIANLASFPKM | soluble |
| KVGLIIISHGRIATETVNVVKELLGVKFPVAIDMPLDEKPINIYNKAVELSKIIDQGKGILFLVDIGSLTNIGQIVNKRTNISTKTIDRVDLLMALEATRKVSMGEEELDEIFFSLLKDRMGYNYELEKHIDKS | not soluble |
